Measurements from paper doi:10.1101/2022.08.12.503774 (bioRxiv, 2022).

Molecular target: the molecule itself
Experiment: cryo-EM structure

B1: MinCys EAAT3 K269C/W441C crosslinked using Hg2+ (EAAT3-X) (natural protein, human, UniProt P43005 1-524, looked up)
chain: MGKPARKGAEWKRFLKNNWVLLSTVAAVVLGITTGVLVREHSNLSTLEKFYFAFPGEILMRMLKLIILPLIISSMITGVAALDSNVSGKIGLRAVVYYFATTLIAVILGIVLVVSIKPGVTQKVGEIARTGSTPEVSTVDAMLDLIRNMFPENLVQAAFQQYKTKREEVKPPSDPEMTMTEESFTAVMTTAISKTKTKEYKIVGMYSDGINVLGLIVFALVFGLVIGKMGEKGQILVDFFNALSDATMKIVQIIMWYMPLGILFLIAGCIIEVEDWEIFRKLGLYMATVLTGLAIHSIVILPLIYFIVVRKNPFRFAMGMAQALLTALMISSSSATLPVTFRCAEENNQVDKRITRFVLPVGATINMDGTALYEAVAAVFIAQLNDLDLGIGQIITISITATSASIGAAGVPQAGLVTMVIVLSAVGLPAEDVTLIIAVDCLLDRFRTMVNVLGDAFGTGIVEKLSKKELEQMDVSSEVNIVNPFALESTILDNEDSDTKKSYVNGGFAVDKSDTISFTQTSQF
modifications: Hg2+ crosslink between C269 and C441
**Q.** Does B1 bind?
**A.** Result: binds
